Experiment [1] has as its target T1, hu_CXCR2_N-term (1-17)-BSA (human; bovine, coupled to carrier protein BSA; C-terminal cysteine introduced to enable coupling).
T1 construct: Synthetic linear peptide chemically coupled to the carrier; also called CXCR2_aa1-17_BSA; CXCR2 aa1-17 BSA
As to the kind of experiment: SPR (Biacore), peptide-BSA immobilized, Fab analyte, steady-state fit. The protocol: (§1) Affinities (KD values) were determined using SPR (Biacore T200, GE Healthcare) using the following setup: The antigens (hu_CXCR2_N-term (1-17)-BSA, or hu_CXCR2_N-term (1-17)-Trf, respectively) were covalently coupled to a CM5 sensor chip using NHS/EDC chemistry. Antigens were diluted in 10 mM Acetate pH4.5 to a concentration of approx. 100 μg/mL. The final immobilization level was approx. 400 RU for the BSA-coupled peptide and 200 RU for the TRF-coupled peptide. HBS-EP pH7 was used as running buffer throughout the experiment at a flow rate of 30 μL/min. Fab fragments were used as samples (monomer portion at least 90% as determined by HP-SEC, Superdex 75 PC3.2/30 (GE Healthcare). Of each sample, a 2n serial dilution row from 31.25-1000 nM was prepared (6 concentrations) and injected, followed by a blank injection, which was later used for double referencing. Association of Fab samples was recorded for 240 s, and dissociation was monitored for 300 s. At the end of each cycle bound (Fab−) sample was removed from the sensor with one 30 s injection of MgCl2 (3M).
(§2) Most of the recorded binding curves deviated from the expected bimolecular binding model (1:1), but the sensorgrams seemed to reach equilibrium towards the late association phase. Therefore, the binding data (report point late association) was fitted to a steady state model. The Req vs. concentration plots/fits followed the assumed one-binding-site model, and the resulting KD were reported. EC50 values determined by ELISA were in the single digit nanomolar range on N-terminal CXCR2 peptides. […] Respective results of selected 6 Fabs are summarized in Table 1 (data of one representative experiments are shown).

The target in experiment [2] is T2, peptide derived of extracellular domain three (human, coupled to a carrier protein (BSA or transferrin, not stated which)).
T2 construct: also called ECL3 peptide
T2 peptide: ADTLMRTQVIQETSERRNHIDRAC
Description: ELISA, Fab. The procedure:
(§3) 384-well Maxisorp plates (Nunc; Cat. #460518) were coated with respective CXCR2 and control peptides coupled either to BSA or Transferrin (TRF) at 1-5 μg/mL and incubated o/n at 4° C. […] After three washing steps, antibodies were added at 5-10 μg/mL and titrated in some experiments. Antibodies were incubated 1 h at room temperature and plates were subsequently washed. Binding of anti-CXCR2 antibodies was detected by using alkaline phosphatase-conjugated anti-human IgG, (Dianova, Cat #109-055-097). AttoPhos fluorescence substrate (Roche, Cat #1484281) was added according to instructions of the manufacturer and fluorescence was measured (excitation at 430 nm, emission at 535 nm) using a microplate reader.
(§4) The Fabs were further tested including affinity determination via BiaCore, EC₅₀ determination in ELISA and FACS, as well as the evaluation of cellular cytotoxicity via secondary immunotoxin (Saporin) upon antibody internalization (Fab-ZAP). Respective experimental settings as outlined in Example 3 were used.

Experiment [3] deals with T3, hu_CXCR2_N-term (1-17)-Trf (human, coupled to carrier protein human transferrin; C-terminal cysteine introduced to enable coupling).
T3 construct: Synthetic linear peptide chemically coupled to the carrier; also called CXCR2_aa1-17_TRF; N-terminal peptide aa1-17, Transferrin-coupled
T3 sequence (P02787 20-698 limits assumed): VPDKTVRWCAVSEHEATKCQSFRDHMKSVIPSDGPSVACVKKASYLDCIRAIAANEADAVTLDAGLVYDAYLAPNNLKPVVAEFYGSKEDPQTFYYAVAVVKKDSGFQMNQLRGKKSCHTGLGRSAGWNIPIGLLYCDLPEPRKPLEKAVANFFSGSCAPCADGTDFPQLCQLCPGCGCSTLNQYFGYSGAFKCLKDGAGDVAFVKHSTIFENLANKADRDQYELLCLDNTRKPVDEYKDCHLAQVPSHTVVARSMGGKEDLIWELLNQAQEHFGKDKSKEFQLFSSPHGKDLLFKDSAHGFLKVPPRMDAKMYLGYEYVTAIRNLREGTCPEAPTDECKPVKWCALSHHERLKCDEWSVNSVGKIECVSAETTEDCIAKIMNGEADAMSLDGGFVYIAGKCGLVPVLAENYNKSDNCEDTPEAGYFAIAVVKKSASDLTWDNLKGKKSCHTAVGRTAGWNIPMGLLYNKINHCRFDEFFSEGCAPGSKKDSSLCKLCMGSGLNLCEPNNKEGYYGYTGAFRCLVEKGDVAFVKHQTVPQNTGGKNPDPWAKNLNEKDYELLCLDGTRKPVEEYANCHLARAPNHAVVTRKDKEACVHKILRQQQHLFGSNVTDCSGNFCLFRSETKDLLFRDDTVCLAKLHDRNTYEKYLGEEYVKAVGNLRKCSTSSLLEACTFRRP
Description: SPR (Biacore), peptide-TRF immobilized, Fab analyte, steady-state fit. The procedure: as §1, §2
For orientation: In SPR one partner is held on a chip, and binding of the other changes the refractive index at the surface.

Experiment [4] deals with T1, hu_CXCR2_N-term (1-17)-BSA. Description: ELISA, coated peptide-BSA, Fab. The procedure: as §3, §4
Background: In an ELISA, binding on a coated surface is turned into a signal by an enzyme label.

Experiment [5] addresses T3, hu_CXCR2_N-term (1-17)-Trf. As to the kind of experiment: ELISA, coated peptide-TRF, Fab. The procedure: as §3, §4
Experiment [6] deals with T4, N-Terminal Peptide aa1-17 (Transferrin- or BSA-Coupled) (human, also: coupled to carrier protein (BSA or transferrin), site not given here).
T4 peptide: MEDFNMESDSFEDFWKGC
As to the kind of experiment: initial screening, Fab; carrier of the peptide not stated.

Experiment [7] deals with T5, human CXCR2 (human, UniProt P25025 1-360).
T5 construct: Expressed on Flp-In CHO cells (FACS, Fab-ZAP, ADCC, CDC) or on bought PathHunter CHO cells (beta-arrestin assay); the construct in the PathHunter cells is not described; also called chemokine receptor CXCR2; CXCR2 CHO Flp-In cells
T5 sequence: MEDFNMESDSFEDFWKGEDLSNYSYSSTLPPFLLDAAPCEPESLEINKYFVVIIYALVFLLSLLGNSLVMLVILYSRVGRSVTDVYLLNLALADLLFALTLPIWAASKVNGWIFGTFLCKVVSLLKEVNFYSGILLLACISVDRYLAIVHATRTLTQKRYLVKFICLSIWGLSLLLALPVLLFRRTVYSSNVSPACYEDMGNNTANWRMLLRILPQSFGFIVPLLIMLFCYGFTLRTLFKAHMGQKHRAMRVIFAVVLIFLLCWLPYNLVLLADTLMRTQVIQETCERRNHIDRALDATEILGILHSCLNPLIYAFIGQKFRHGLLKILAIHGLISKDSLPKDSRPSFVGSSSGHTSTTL
As to the kind of experiment: FACS, CXCR2 CHO Flp-In cells, Fab. The procedure:
(§5) Human CXCR2-expressing Flp-In™ CHO cells were harvested at ˜80% confluence washed once with PBS (Gibco, Cat #14190-094) and detached using Versene (Invitrogen, Cat #15040-033). Subsequently, cells were counted and centrifuged at 250×g for 5 min at 4° C. Afterwards, cells were diluted in Superblock (Thermo Fisher Perbio Science, Cat #37515) to a cell concentration of 2E+05-1E+06/mL and 100 μL/well were transferred to 96-well microtiter plate (Nunc, Cat#163320). Cells were once centrifuged, supernatant discarded and antibodies added at 1 μg/mL (unless stated otherwise), incubated for 1 h at 4° C. and washed twice with FACS buffer (PBS/3% FCS/0.02% NaN3). Binding of anti-CXCR2 antibodies was detected by incubation of Phycoerythrin-conjugated anti-human IgG (Dianova, Cat #109-116-097) for 1 h at 4° C. Samples were subsequently measured using FACS Array (Becton Dickinson).
as §4
Background: A flow cytometer gives signals particle by particle.

Experiment [8] deals with T6, N-terminal peptide aa1-48, BSA-coupled (human; bovine, coupled to carrier protein BSA; C-terminal cysteine introduced to enable coupling).
T6 construct: also called CXCR2 aa1-48 BSA
T6 sequence (P02769 25-607 limits assumed): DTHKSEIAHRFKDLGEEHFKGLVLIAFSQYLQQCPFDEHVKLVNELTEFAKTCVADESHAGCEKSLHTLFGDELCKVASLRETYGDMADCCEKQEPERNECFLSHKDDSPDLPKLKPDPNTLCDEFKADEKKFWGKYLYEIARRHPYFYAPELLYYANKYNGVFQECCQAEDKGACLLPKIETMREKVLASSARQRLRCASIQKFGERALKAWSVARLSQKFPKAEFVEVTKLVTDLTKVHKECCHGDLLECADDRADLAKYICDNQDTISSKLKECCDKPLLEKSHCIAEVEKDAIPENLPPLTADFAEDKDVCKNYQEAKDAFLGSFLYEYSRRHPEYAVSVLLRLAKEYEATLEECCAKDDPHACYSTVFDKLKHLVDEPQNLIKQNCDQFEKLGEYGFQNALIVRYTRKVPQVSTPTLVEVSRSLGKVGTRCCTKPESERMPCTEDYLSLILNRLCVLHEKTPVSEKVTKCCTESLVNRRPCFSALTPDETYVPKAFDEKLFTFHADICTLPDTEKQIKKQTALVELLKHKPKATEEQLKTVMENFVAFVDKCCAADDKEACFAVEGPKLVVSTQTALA
Description: ELISA, coated peptide-BSA, IgG1. The protocol: as §3

The target in experiment [9] is T7, ECL3 peptide aa273-295, BSA-coupled (human; bovine, coupled to carrier protein BSA; C-terminal cysteine introduced to enable coupling).
T7 construct: also called CXCR2 aa273-295 BSA; peptides representing the extracellular domain 3
T7 sequence (P02769 25-607 limits assumed): as above
Description: ELISA, coated peptide-BSA, IgG1. The procedure: as §3

Experiment [10] concerns the target T1, hu_CXCR2_N-term (1-17)-BSA. As to the kind of experiment: ELISA, coated peptide-BSA, IgG1. The procedure:
as §3

Experiment [11] addresses T5, human CXCR2. Description: FACS, CXCR2 CHO Flp-In cells, IgG1. The protocol:
as §5

Numbering of substitutions follows the chain as printed. Where no end group is shown, it is not given here.

T1 sequence (P02769 25-607 limits assumed): as above

B1: CX2-Mab #6 (Fab format) (Fab, V domains shown)
VH: EVQLLESGGGLVQPGGSLRLSCAASGFTFSSYTMSWVRQAPGKGLEWVSAIHSSGSSTYYADSVKGRFTISRDNSKNTLYLQMNSLRAEDTAVYYCARVPAYYGFDHWGQGTLVTVSS
VL: DIELTQPPSVSVSPGQTASITCSGDSLGAFYVHWYQQKPGQAPVLVIYRTNNRPSGIPERFSGSNSGNTATLTISGTQAEDEADYYCASYASRNRVFGGGTKLTVLG
B1: the Kd in [1] is 353 nM; in experiment [3] it was 251 nM. Further, in [2], the binding result was “no binding”. The values for the EC50 (in experiment [4]; in [5]; with human CXCR2 [7]) were 1.3 nM, 0.5 nM and 195 nM, respectively. In addition, in [6], the signal over background is ≥ 5 fold.

B2: CX2-Mab #2 (Fab format) (Fab, V domains shown)
VH: QVQLVQSGAEVKKPGASVKVSCKASGYTFSRYAMHWVRQAPGQGLEWMGVINPYNGNTRYAQKFQGRVTMTRDTSISTAYMELSRLRSEDTAVYYCARGSHIQAGAFDYWGQGTLVTVSS
VL: DIQMTQSPSSLSASVGDRVTITCRASQGINNRLNWYQQKPGKAPKLLIYDGSSLQSGVPSRFSGSGSGTDFTLTISSLQPEDFATYYCQQYIHFPVTFGQGTKVEIKR
B2: the dissociation constant (Kd) in [1] was 221 nM; in [3], 210 nM. Also, in [2], the binding result is “no binding”. Also, the concentration for a half-maximal effect (EC50) in [4] was 3.6 nM; in experiment [5], 1.3 nM; with human CXCR2 [7], > 6000 nM. For the same molecule, in [6], the signal over background is ≥ 5 fold.

B3: CX2-Mab #1.5 (antibody, IgG1, V domains shown)
VH: QVQLVQSGAEVKKPGSSVKVSCKASGGTFSSYAISWVRQAPGQGLEWMGGIIPIVGEAKYAQKFQGRVTITADESTSTAYMELSSLRSEDTAVYYCARDSSGYDGYYAFAYWGQGTQVTVSS
VL: DIVLTQPPSVSGAPGQRGTISCSGSSSNIGSSSVNWYQQLPGTAPKLLIYRNNQRPSGVPDRFSGSKSGTSASLAITGLQAEDEADYYCASTDSQWRQIVFGGGTKLTVLG
For B3, the binding result (in experiment [8]; in experiment [9]; in experiment [10]; in the experiment with human CXCR2 [11]) was “binds” in each case.

B4: CX2-Mab #3 (Fab format) (Fab, V domains shown)
VH: EVQLLESGGGLVQPGGSLRLSCAASGFTFSSYWMSWVRQAPGKGLEWVSVISYSGSETFYADSVKGRFTISRDNSKNTLYLQMNSLRAEDTAVYYCARGRVGYAFDYWGQGTLVTVSS
VL: DIVLTQPPSVSGAPGQRVTISCSGSSSNIGVNYVNWYQQLPGTAPKLLIYSNNQRPSGVPDRFSGSKSGTSASLAITGLQAEDEADYYCQSRASGFYSVVFGGGTKLTVLG
With B4, the Kd was found to be 393 nM in [1] and 317 nM in experiment [3]. The binding result in [2] is given as “no binding”. Also, the EC50 stood at 4.7 nM in experiment [4], 2 nM in [5] and 105 nM with human CXCR2 [7]. Further, in [6], the signal over background is ≥ 5 fold.

B5: CX2-Mab #3.1 (antibody, IgG1, V domains shown)
VH: B4 VH with E1Q
VL: B4 VL with S91T, S94V, G95H, Y97A, S98R
In the case of B5, the binding result (in [8]; in experiment [9]; in [10]; with human CXCR2 [11]) was “binds” in each case.

B6: CX2-Mab #4 (Fab format) (Fab, V domains shown)
VH: EVQLLESGGGLVQPGGSLRLSCAASGFTFSSNGMSWVRQAPGKGLEWVSAISSSGSKTYYADSVKGRFTISRDNSKNTLYLQMNSLRAEDTAVYYCARGYGFDVWGQGTLVTVSS
VL: DIVLTQPPSVSGAPGQRVTISCSGSSSNIGVNIVNWYQQLPGTAPKLLIYSTSNRPSGVPDRFSGSKSGTSASLAITGLQAEDEADYYCATRDGISKSVVFGGGTKLTVLG
B6: the dissociation constant Kd in experiment [1] is 143 nM; in [3], 101 nM. For the same molecule, in experiment [2], the binding result is recorded as “no binding”. Also, the EC50 is 0.8 nM in experiment [4], 0.4 nM in experiment [5] and 136 nM in the experiment with human CXCR2 [7]. Further, in experiment [6], the signal over background is ≥ 5 fold.

B7: CX2-Mab #5 (Fab format) (Fab, V domains shown)
VH: EVQLLESGGGLVQPGGSLRLSCAASGFTFNSNAMSWVRQAPGKGLEWVSFISYSGSHTYYADSVKGRFTISRDNSKNTLYLQMNSLRAEDTAVYYCARYTRFLSRPAFDPWGQGTLVTVSS
VL: DIVLTQPPSVSGAPGQRVTISCTGSSSNIGAGYDVHWYQQLPGTAPKLLIYYNSKRPSGVPDRFSGSKSGTSASLAITGLQAEDEADYYCGAYDRKMNSYVFGGGTKLTVLG
For the molecule B7, the Kd came to 146 nM in experiment [1] and 149 nM in experiment [3]. For the same molecule, the binding result in experiment [2] was “no binding”. Further, the concentration for a half-maximal effect (EC50) is 0.6 nM in experiment [4], 0.5 nM in experiment [5] and > 6000 nM with human CXCR2 [7]. Also, the signal over background in experiment [6] was ≥ 5 fold.

Usually Kd stands for the concentration at which binding is half-saturated. Higher therefore signals weaker binding. As usually defined, the EC50 is the concentration that produces a half-maximal response. The low end stands for an effect from little substance, the high end for a need for much substance.

Source of the values: US20160060347A1 (MorphoSys, published 2016).
